The text below walks through data of US20070244048A1 (published 2007).

Targets include human NMUR2 (human, UniProt Q9GZQ4 1-415); mouse NMUR2 (mouse, UniProt Q8BZ39 1-395); rat NMUR2 (rat, UniProt Q9ESQ4 1-395).
Common to all, as to assay: cell-based or functional assay
In another assay the target is T1, human NMUR1 (human, UniProt Q9HB89 1-426).
T1 sequence (looked up): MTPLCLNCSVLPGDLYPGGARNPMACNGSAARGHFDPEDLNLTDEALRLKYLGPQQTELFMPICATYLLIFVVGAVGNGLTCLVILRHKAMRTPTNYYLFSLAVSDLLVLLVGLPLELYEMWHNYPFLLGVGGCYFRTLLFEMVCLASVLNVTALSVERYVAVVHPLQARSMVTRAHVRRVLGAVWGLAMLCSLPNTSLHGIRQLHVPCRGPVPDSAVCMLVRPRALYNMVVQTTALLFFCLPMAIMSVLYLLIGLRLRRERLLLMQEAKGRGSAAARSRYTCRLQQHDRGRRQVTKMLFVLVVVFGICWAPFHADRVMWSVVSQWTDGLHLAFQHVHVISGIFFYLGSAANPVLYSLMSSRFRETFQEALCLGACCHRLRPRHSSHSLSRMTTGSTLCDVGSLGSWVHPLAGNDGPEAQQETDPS

For the next assay, the target named is T2, mouse NMUR1-ATG (mouse, UniProt O55040 1-428).
T2 sequence (looked up): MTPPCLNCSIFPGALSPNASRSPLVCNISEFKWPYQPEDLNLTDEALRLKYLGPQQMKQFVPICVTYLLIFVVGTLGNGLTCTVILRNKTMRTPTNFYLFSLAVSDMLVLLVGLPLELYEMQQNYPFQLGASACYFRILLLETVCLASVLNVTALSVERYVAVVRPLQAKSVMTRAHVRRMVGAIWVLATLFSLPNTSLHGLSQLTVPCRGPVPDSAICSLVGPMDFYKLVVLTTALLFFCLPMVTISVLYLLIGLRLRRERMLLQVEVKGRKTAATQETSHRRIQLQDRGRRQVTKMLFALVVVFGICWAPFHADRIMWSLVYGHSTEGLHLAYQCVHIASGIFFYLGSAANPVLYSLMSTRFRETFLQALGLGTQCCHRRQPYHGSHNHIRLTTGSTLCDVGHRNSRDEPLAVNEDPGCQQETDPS

In the next assay the target is T3, mouse NMUR1-CTG (mouse, UniProt O55040 1-428).
T3 sequence (looked up): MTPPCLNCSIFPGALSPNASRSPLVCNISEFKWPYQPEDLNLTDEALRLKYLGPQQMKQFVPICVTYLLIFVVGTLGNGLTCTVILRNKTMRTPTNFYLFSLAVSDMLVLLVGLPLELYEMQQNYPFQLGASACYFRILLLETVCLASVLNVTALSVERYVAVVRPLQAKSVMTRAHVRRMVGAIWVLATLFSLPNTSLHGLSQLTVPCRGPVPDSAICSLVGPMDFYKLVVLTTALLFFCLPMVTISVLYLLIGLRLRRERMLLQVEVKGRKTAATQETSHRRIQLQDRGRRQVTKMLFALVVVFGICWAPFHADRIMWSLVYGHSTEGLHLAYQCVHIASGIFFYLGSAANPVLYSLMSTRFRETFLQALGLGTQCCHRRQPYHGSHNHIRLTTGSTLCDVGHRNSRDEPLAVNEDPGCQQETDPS

The next assay concerns the target T4, rat NMUR1-ATG (rat, UniProt Q9JJI5 1-425).
T4 sequence (looked up): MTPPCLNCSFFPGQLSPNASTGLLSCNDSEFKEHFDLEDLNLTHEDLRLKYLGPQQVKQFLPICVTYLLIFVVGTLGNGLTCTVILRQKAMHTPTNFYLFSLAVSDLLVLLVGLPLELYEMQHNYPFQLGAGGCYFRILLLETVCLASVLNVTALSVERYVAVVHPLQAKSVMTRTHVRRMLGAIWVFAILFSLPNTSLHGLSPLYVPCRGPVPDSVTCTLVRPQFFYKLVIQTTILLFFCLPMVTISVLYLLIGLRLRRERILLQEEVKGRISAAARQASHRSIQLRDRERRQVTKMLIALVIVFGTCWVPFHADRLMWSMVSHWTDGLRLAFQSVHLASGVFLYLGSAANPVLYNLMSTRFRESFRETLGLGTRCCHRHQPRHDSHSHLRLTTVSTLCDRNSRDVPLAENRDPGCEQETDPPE

The target in the next assay is T5, rat NMUR1-TTG (rat, UniProt Q9JJI5 1-425).
T5 sequence (looked up): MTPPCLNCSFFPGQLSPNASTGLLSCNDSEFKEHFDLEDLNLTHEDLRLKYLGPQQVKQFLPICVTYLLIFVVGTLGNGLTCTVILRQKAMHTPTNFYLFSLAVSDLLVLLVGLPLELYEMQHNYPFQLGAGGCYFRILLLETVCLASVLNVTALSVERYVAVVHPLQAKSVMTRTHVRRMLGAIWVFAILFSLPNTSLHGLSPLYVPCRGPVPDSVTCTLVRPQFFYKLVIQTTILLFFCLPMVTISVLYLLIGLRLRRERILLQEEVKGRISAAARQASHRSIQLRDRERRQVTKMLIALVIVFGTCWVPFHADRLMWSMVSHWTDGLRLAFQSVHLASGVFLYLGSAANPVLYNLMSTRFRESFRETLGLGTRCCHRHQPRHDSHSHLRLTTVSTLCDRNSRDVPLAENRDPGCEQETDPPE

Where “and” joins values, the source holds several entries; their conditions need not be identical. Identical values can stand only once. Starred links: 1 amine or outer side, 2 acyl side, 3 side chain; linkers in the order of their positions; H or OH if unused. Non-standard residues stand in square brackets, D forms with d. *: point of attachment. Ttds = 1-amino-4,7,10-trioxa-13-tridecanamine succinimic acid spacer, O=C(CCC(=O)[*:2])NCCCOCCOCCOCCCN[*:1]; (PEG)2 40 kDa = branched PEG of 40 kDa linked via the Cys side-chain thiol (code C2 = Cys(PEG)2 40 kDa); Succinimide(1-Et,3-yl) = CCN1C(=O)CC(*)C1=O; Palmitoyl = CCCCCCCCCCCCCCCC(=O)*

Chain of mouse NMUR2 (Q8BZ39 whole entry): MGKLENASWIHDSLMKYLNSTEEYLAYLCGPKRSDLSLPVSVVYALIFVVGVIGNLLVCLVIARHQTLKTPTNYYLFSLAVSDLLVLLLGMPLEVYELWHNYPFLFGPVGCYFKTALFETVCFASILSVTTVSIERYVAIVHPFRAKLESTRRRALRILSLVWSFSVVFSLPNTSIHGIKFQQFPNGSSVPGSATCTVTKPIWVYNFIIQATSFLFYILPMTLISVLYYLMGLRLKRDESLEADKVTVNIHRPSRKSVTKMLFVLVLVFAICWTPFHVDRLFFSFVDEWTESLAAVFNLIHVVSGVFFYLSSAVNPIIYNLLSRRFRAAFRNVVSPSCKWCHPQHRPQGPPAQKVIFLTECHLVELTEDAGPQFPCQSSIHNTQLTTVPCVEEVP
Chain of human NMUR2 (Q9GZQ4 whole entry): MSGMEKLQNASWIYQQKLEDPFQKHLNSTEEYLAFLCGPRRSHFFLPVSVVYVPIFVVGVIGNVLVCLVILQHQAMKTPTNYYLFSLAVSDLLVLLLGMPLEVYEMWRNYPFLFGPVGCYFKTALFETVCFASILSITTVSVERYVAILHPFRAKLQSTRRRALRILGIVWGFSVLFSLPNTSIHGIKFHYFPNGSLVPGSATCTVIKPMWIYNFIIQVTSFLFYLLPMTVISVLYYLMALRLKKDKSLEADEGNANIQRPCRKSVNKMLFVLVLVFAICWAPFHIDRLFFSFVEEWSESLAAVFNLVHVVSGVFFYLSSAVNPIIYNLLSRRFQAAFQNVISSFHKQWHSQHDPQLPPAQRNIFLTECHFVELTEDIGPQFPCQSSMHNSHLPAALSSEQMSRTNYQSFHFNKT
Chain of rat NMUR2 (Q9ESQ4 whole entry): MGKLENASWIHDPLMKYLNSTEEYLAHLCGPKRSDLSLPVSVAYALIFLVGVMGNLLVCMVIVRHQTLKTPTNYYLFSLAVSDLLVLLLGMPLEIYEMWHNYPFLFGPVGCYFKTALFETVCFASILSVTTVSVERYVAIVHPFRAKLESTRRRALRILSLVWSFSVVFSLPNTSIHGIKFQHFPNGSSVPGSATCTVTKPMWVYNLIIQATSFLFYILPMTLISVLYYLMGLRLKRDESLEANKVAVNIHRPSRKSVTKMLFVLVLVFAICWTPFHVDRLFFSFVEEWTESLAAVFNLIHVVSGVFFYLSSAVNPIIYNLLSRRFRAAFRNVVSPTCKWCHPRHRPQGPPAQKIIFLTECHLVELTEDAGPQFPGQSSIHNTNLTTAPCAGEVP

B1: NMU25 (peptide)
peptide: Palmitoyl-C((PEG)2 40 kDa)FRVDEEFQSPFASQSRGYFLFRPRN-NH2
Consider B1, for which the “% Activity (FLIPR)” value in the assay with human NMUR1 came to 83%; in the assay with human NMUR2 it was 98.8%; with mouse NMUR1-ATG it was 100%; with mouse NMUR1-CTG, 100%; with mouse NMUR2, 100%; with rat NMUR1-ATG, 99.6%. The “% Activity (FLIPR)” value with rat NMUR1-TTG amounted to 93.5%; with rat NMUR2, 96.4%. In addition, the “EC50 (FLIPR)” value with human NMUR1 is 168 nM; with human NMUR2, 44.1 nM; in the assay with mouse NMUR1-ATG it was 10.2 nM; with mouse NMUR1-CTG it was 60.3 nM; in the assay with mouse NMUR2, 18.8 nM; with rat NMUR1-ATG, 20.1 nM. Moreover, the “EC50 (FLIPR)” value is 81 nM in the assay with rat NMUR1-TTG and 37.8 nM with rat NMUR2.

B2: NMU14 (peptide)
peptide: Ac-C((PEG)2 40 kDa)FRVDEEFQSPFASQSRGYF[dA]WRPRN-NH2
As for B2, the “% Activity (FLIPR)” value with human NMUR1 stood at 95.7%; with human NMUR2, 0%; with mouse NMUR1-ATG, 60.8%; with mouse NMUR1-CTG it was 24.8%; with mouse NMUR2, 0%; with rat NMUR1-TTG it was 36.7%. In addition, the “EC50 (FLIPR)” value with human NMUR1 was 104 nM; with human NMUR2, above 1000 nM; with mouse NMUR1-ATG, 584 nM; in the assay with mouse NMUR1-CTG it was above 1000 nM; with mouse NMUR2, above 1000 nM; with rat NMUR1-ATG, 240 nM and 133 nM. The “EC50 (FLIPR)” value with rat NMUR1-TTG is above 1000 nM.

B3: NMU16 (peptide)
peptide: Ac-C((PEG)2 40 kDa)[Ttds]FLFRPRN-NH2
On to B3, for which the “% Activity (FLIPR)” value worked out at 74% with human NMUR1; 75% with human NMUR2; 100% with mouse NMUR1-ATG; 57.2% in the assay with mouse NMUR1-CTG; 97.4% with mouse NMUR2; 75.4% with rat NMUR1-ATG. Also, the “% Activity (FLIPR)” value with rat NMUR1-TTG turned out to be 34.6%; with rat NMUR2, 86.9%. The “EC50 (FLIPR)” value with human NMUR1 came to 1000 nM; in the assay with human NMUR2, 1000 nM; in the assay with mouse NMUR1-ATG it was 24.1 nM; with mouse NMUR1-CTG, 651 nM; with mouse NMUR2, 138 nM; with rat NMUR1-ATG it was 418 nM. In addition, the “EC50 (FLIPR)” value with rat NMUR1-TTG turned out to be 1000 nM; with rat NMUR2, 315 nM.

B4: NMU18 (peptide)
peptide: Ac-C((PEG)2 40 kDa)ASQSRGYFLFRPRN-NH2
In the case of B4, the “% Activity (FLIPR)” value with human NMUR1 was 97.1%; with human NMUR2, 101%; in the assay with mouse NMUR1-ATG, 100%; with mouse NMUR1-CTG it was 57.7%; with mouse NMUR2 it was 100%; with rat NMUR1-ATG, 95.9%. The figures for the “% Activity (FLIPR)” value in the assay with rat NMUR1-TTG and with rat NMUR2 were 90.7% and 96.7%, respectively. In addition, the “EC50 (FLIPR)” value came out at 68.1 nM with human NMUR1; 65.7 nM in the assay with human NMUR2; 15.2 nM with mouse NMUR1-ATG; 693 nM with mouse NMUR1-CTG; 50.2 nM with mouse NMUR2; 28.6 nM in the assay with rat NMUR1-ATG. Moreover, the results for the “EC50 (FLIPR)” value with rat NMUR1-TTG and with rat NMUR2 were 105 nM and 63 nM, respectively.

B5: NMU17 (peptide)
peptide: Ac-C(Succinimide(1-Et,3-yl))ASQSRGYFLFRPRN-NH2
SMILES: CCN1C(=O)CC(SC[C@H](NC(C)=O)C(=O)N[C@@H](C)C(=O)N[C@@H](CO)C(=O)N[C@@H](CCC(N)=O)C(=O)N[C@@H](CO)C(=O)N[C@@H](CCCNC(=N)N)C(=O)NCC(=O)N[C@@H](Cc2ccc(O)cc2)C(=O)N[C@@H](Cc2ccccc2)C(=O)N[C@@H](CC(C)C)C(=O)N[C@@H](Cc2ccccc2)C(=O)N[C@@H](CCCNC(=N)N)C(=O)N2CCC[C@H]2C(=O)N[C@@H](CCCNC(=N)N)C(=O)N[C@@H](CC(N)=O)C(N)=O)C1=O
Consider B5, for which the “% Activity (FLIPR)” value is 100% with human NMUR1; 99.8% with human NMUR2; 100% with mouse NMUR1-ATG; 117% with mouse NMUR1-CTG; 100% with mouse NMUR2; 100% with rat NMUR1-ATG. Also, the entries for the “% Activity (FLIPR)” value with rat NMUR1-TTG and in the assay with rat NMUR2 were 105% and 100%, respectively. The “EC50 (FLIPR)” value came to 5 nM in the assay with human NMUR1; 1.5 nM with human NMUR2; 1.2 nM in the assay with mouse NMUR1-ATG; 2.9 nM with mouse NMUR1-CTG; 0.5 nM in the assay with mouse NMUR2; 0.9 nM with rat NMUR1-ATG. Moreover, the “EC50 (FLIPR)” value was determined as 4.9 nM in the assay with rat NMUR1-TTG and 1.2 nM with rat NMUR2.

B6: NMU15 (peptide)
peptide: Ac-C(Succinimide(1-Et,3-yl))[Ttds]FLFRPRN-NH2
SMILES: CCN1C(=O)CC(SC[C@H](NC(C)=O)C(=O)NCCCOCCOCCOCCCNC(=O)CCC(=O)N[C@@H](Cc2ccccc2)C(=O)N[C@@H](CC(C)C)C(=O)N[C@@H](Cc2ccccc2)C(=O)N[C@@H](CCCNC(=N)N)C(=O)N2CCC[C@H]2C(=O)N[C@@H](CCCNC(=N)N)C(=O)N[C@@H](CC(N)=O)C(N)=O)C1=O
On to B6, for which the “% Activity (FLIPR)” value turned out to be 91.5% with human NMUR1; 101% in the assay with human NMUR2; 100% in the assay with mouse NMUR1-ATG; 100% with mouse NMUR1-CTG; 100% in the assay with mouse NMUR2; 100% with rat NMUR1-ATG. Moreover, the “% Activity (FLIPR)” value was determined as 108% in the assay with rat NMUR1-TTG and 100% with rat NMUR2. The “EC50 (FLIPR)” value with human NMUR1 stood at 7.7 nM; in the assay with human NMUR2 it was 4.2 nM; with mouse NMUR1-ATG, 1.5 nM; with mouse NMUR1-CTG, 4 nM; with mouse NMUR2 it was 0.6 nM; with rat NMUR1-ATG, 4.2 nM. The “EC50 (FLIPR)” value in the assay with rat NMUR1-TTG came to 24.6 nM; in the assay with rat NMUR2, 2.2 nM.

B7: NMU12 (peptide)
peptide: Ac-C((PEG)2 40 kDa)FRVDEEFQSPFASQSRGYFLFRPRN-NH2
B7: the “% Activity (FLIPR)” value was 92.9% with human NMUR1; 89% with human NMUR2; 98.4% with mouse NMUR1-ATG; 68.5% in the assay with mouse NMUR1-CTG; 94.1% with mouse NMUR2; 52.7% with rat NMUR1-ATG. For the same molecule, in the assay with rat NMUR2, the “% Activity (FLIPR)” value amounted to 43.4%. Moreover, the “EC50 (FLIPR)” value came out at 58.6 nM with human NMUR1; 119 nM with human NMUR2; 72 nM in the assay with mouse NMUR1-ATG; 407 nM with mouse NMUR1-CTG; 19.1 nM in the assay with mouse NMUR2; 1000 nM with rat NMUR1-ATG. Also, in the assay with rat NMUR2, the “EC50 (FLIPR)” value worked out at 1000 nM.
